According to paper PMC2959089, “The intriguing Cyclophilin A-HIV-1 Vpr interaction: prolyl cis/trans isomerisation catalysis and specific binding” (BMC Structural Biology, 2010):

Target: recombinant human Cyclophilin A (CypA) (human) (UniProt P62937)
Assay: SPR

recombinant human Cyclophilin A (CypA) (human), sequence (P62937 whole entry): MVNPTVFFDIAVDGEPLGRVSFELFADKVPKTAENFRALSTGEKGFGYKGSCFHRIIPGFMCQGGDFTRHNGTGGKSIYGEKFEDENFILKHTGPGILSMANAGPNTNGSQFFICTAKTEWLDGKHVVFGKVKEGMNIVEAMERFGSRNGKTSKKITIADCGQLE

Row | Substance | Kd [mM] | ka1 (two-state model, association) [M⁻¹ s⁻¹] | ka2 (two-state model, forward rate) [s⁻¹] | kd1 (two-state model, dissociation) [s⁻¹] | kd2 (two-state model, backward rate) [s⁻¹]
1 | synthetic HIV-1 Vpr peptide sVpr^1-40 | 0.284 | 752 | 0.0073 | 0.37 | 0.0099
2 | synthetic mutant HIV-1 Vpr peptide sVpr^1-40 P5,10,14N | 6.15 | 46 | 0.0047 | 0.56 | 0.0048
